{"source": "paper PMC8607333", "about": "“Real-time kinetic studies of Mycobacterium tuberculosis LexA–DNA interaction” (Bioscience Reports, 2021)", "binders": {"B1": {"name": "Mtb LexAΔ24aa (domain or fragment)", "chain": "SALTERQRTILDVIRASVTSRGYPPSIREIGDAVGLTSTSSVAHQLRTLERKGYLRRDPNRPRAVNVRGADDAALPPVTEVAGSDALPEPTFVPVLGRIAAGGPILAEEAVEDVFPLPRELVGEGTLFLLKVIGDSMVEAAICDGDWVVVRQQNVADNGDIVAAMIDGEATVKTFKRAGGQVWLMPHNPAFDPIPGNDATVLGKVVTVIRKV", "notes": "also called ∆24aa variant; LexA∆24aa"}, "B2": {"name": "Mtb LexAΔ18aa (natural protein)", "chain": "MNDSNDTSVAGGAAGADSRVLSADSALTERQRTILDVIRASVTSRGYPPSIREIGDAVGLTSTSSVAHQLRTLERKGYLRRDPNRPRAVNVRGPEPTFVPVLGRIAAGGPILAEEAVEDVFPLPRELVGEGTLFLLKVIGDSMVEAAICDGDWVVVRQQNVADNGDIVAAMIDGEATVKTFKRAGGQVWLMPHNPAFDPIPGNDATVLGKVVTVIRKV", "notes": "also called ∆18aa variant; LexA18aaΔ"}, "B3": {"name": "Mycobacterium tuberculosis LexA, wild type (natural protein)", "chain": "MNDSNDTSVAGGAAGADSRVLSADSALTERQRTILDVIRASVTSRGYPPSIREIGDAVGLTSTSSVAHQLRTLERKGYLRRDPNRPRAVNVRGADDAALPPVTEVAGSDALPEPTFVPVLGRIAAGGPILAEEAVEDVFPLPRELVGEGTLFLLKVIGDSMVEAAICDGDWVVVRQQNVADNGDIVAAMIDGEATVKTFKRAGGQVWLMPHNPAFDPIPGNDATVLGKVVTVIRKV", "notes": "also called Mtb LexA; WT Mtb LexA"}, "B4": {"name": "Mtb LexA RKG/AAA (natural protein)", "chain": "MNDSNDTSVAGGAAGADSRVLSADSALTERQRTILDVIRASVTSRGYPPSIREIGDAVGLTSTSSVAHQLRTLEAAAYLRRDPNRPRAVNVRGADDAALPPVTEVAGSDALPEPTFVPVLGRIAAGGPILAEEAVEDVFPLPRELVGEGTLFLLKVIGDSMVEAAICDGDWVVVRQQNVADNGDIVAAMIDGEATVKTFKRAGGQVWLMPHNPAFDPIPGNDATVLGKVVTVIRKV", "notes": "also called RKG/AAA mutant; RKG mutant"}, "B5": {"name": "dnaE2_44mer SOS box, biotinylated (dsDNA)", "DNA 1": "ACAACTGCGCTGTATCGAACAATTGTTCGATATACTGTGGAATG", "DNA 2": "CATTCCACAGTATATCGAACAATTGTTCGATACAGCGCAGTTGT"}, "B6": {"name": "dnaE2 44mer SOS box, 32P end-labeled (dsDNA)", "DNA 1": "ACAACTGCGCTGTATCGAACAATTGTTCGATATACTGTGGAATG", "DNA 2": "CATTCCACAGTATATCGAACAATTGTTCGATACAGCGCAGTTGT"}, "B7": {"name": "dnaE2 44mer SOS box, non-biotinylated (dsDNA)", "DNA 1": "ACAACTGCGCTGTATCGAACAATTGTTCGATATACTGTGGAATG", "DNA 2": "CATTCCACAGTATATCGAACAATTGTTCGATACAGCGCAGTTGT"}}, "key": {"SEC": {"target": "the molecule itself", "test": "SEC"}, "LexA RKG/AAA [1]": {"target": "T1, LexA RKG/AAA (Mycobacterium tuberculosis, UniProt P9WHR7 1-236, R75A;K76A;G77A)", "T1 sequence": "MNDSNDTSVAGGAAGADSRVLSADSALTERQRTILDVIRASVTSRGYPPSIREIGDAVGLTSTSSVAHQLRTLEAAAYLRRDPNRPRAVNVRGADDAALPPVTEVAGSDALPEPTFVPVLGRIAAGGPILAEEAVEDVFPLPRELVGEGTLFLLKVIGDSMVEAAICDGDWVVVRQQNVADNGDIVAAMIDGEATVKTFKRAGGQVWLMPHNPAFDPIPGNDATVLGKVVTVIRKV", "test": "BLI; pH 7.5; association up to 600 s; BLI: 10 mM HEPES pH 7.5, 50 mM NaCl, 25 C (pH 4 buffer not stated), 1:1 global fit; […]", "conditions": "protein: recombinant; tags: 6xHis; chain copies: 2; label: 5' biotin on strand 1; blunt"}, "LexA RKG/AAA [2]": {"target": "T1, LexA RKG/AAA", "test": "EMSA; 128 nM protein; BLI: 10 mM HEPES pH 7.5, 50 mM NaCl, 25 C (pH 4 buffer not stated), 1:1 global fit; […]", "conditions": "protein: recombinant; tags: 6xHis; chain copies: 2; label: 32P end label, no biotin; blunt"}, "LexA RKG/AAA [3]": {"target": "T1, LexA RKG/AAA", "test": "ANS extrinsic fluorescence quench; ANS, 1:2 ratio; no significant quench; BLI: 10 mM HEPES pH 7.5, 50 mM NaCl, 25 C (pH 4 buffer not stated), 1:1 global fit; […]", "conditions": "protein: recombinant; tags: 6xHis; chain copies: 2; blunt"}}, "data": [{"binder": "B1", "values": [{"measurement": "stoichiometry N", "setting": "SEC", "value": 2}]}, {"binder": "B2", "values": [{"measurement": "stoichiometry N", "setting": "SEC", "value": 2}]}, {"binder": "B3", "values": [{"measurement": "stoichiometry N", "setting": "SEC", "value": 2}]}, {"binder": "B4", "values": [{"measurement": "stoichiometry N", "setting": "SEC", "value": 2}]}, {"binder": "B5", "values": [{"measurement": "binding result", "setting": "LexA RKG/AAA [1]", "value": "no binding"}]}, {"binder": "B6", "values": [{"measurement": "binding result", "setting": "LexA RKG/AAA [2]", "value": "no binding"}]}, {"binder": "B7", "values": [{"measurement": "binding result", "setting": "LexA RKG/AAA [3]", "value": "no binding"}]}]}
